Laboratory results from US10464978B2, “Peptides and combination of peptides for use in immunotherapy against ovarian cancer and other cancers” (immatics biotechnologies GmbH, priority 2015, dated 2019).

molecular target: HLA-A*02:01 (Homo sapiens, UniProt P04439, D140Y/D185E/D98H/E176V/E277Q/G131W/G231S/I119V/I121R/I166T/I218V/L300P/L318F/N151K/N90K/P208A/P217A/Q86G/Q94H/R138H/R169H/T345S); experiment: MHC binding assay: UV-ligand exchange with beta2m ELISA (peptide exchange yield); conditions: binding to HLA-A*02:01
In short: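 Peptide-MHC complexes formed by UV-ligand exchange, a UV-cleavable peptide being replaced by the candidate peptide. Exchange products diluted 100-fold, captured on streptavidin-coated plates for 1h at 37° C, then detected with 2 ug/ml HRP anti-β2m (1h, 37° C) and TMB, absorbance 450 nm; value is exchange yield.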

Row | Substance | Peptide exchange (MHC class I binding score, peptide exchange yield)
1 | 198 (KTINKVPTV; listed as Homo sapiens) [compound 198] | “+++” (≥50 = +++)
2 | 480 (ALLEDSCHYL; listed as Homo sapiens) [compound 480] | “+++” (≥50 = +++)
3 | 78 (SLFSSLEPQIQPV; listed as Homo sapiens) [compound 78] | “+++” (≥50 = +++)
4 | 590 (SLIEKLWQT; listed as Homo sapiens) [compound 590] | “++” (≥20% = ++)
5 | 567 (SLLPLDDIVRV; listed as Homo sapiens) [compound 567] | “+++” (≥50 = +++)
6 | 458 (SLIDKLYNI; listed as Homo sapiens) [compound 458] | “++” (≥20% = ++)
7 | 91 (IMQDFPAEIFL; listed as Homo sapiens) [compound 91] | “++++” (≥75% = ++++)
8 | 159 (GLVGNPLPSV; listed as Homo sapiens) [compound 159] | “++++” (≥75% = ++++)
9 | 370 (SLLQDLVSV; listed as Homo sapiens) [compound 370] | “+++” (≥50 = +++)
10 | 613 (RLLPPGAVVAV; listed as Homo sapiens) [compound 613] | “+++” (≥50 = +++)
11 | 383 (ALLELENSVTL; listed as Homo sapiens) [compound 383] | “+++” (≥50 = +++)
12 | 359 (YLLPESVDL; listed as Homo sapiens) [compound 359] | “+++” (≥50 = +++)
13 | 96 (YIFTDNPAAV; listed as Homo sapiens) [compound 96] | “+++” (≥50 = +++)
14 | 559 (VTVPPGPSL; listed as Homo sapiens) [compound 559] | “++” (≥20% = ++)
15 | 289 (VLLEIEDLQV; listed as Homo sapiens) [compound 289] | “++++” (≥75% = ++++)
16 | 101 (ILVGGGALATV; listed as Homo sapiens) [compound 101] | “+++” (≥50 = +++)
17 | 113 (GLLPTPLFGV; listed as Homo sapiens) [compound 113] | “+++” (≥50 = +++)
18 | 608 (SLLSVSHAL; listed as Homo sapiens) [compound 608] | “+++” (≥50 = +++)
19 | 243 (LLLNELPSV; listed as Homo sapiens) [compound 243] | “+++” (≥50 = +++)
20 | 478 (YLLHEKLNL; listed as Homo sapiens) [compound 478] | “+++” (≥50 = +++)
21 | 340 (ALLSMTFPL; listed as Homo sapiens) [compound 340] | “++++” (≥75% = ++++)
22 | 17 (GLLPGDRLVSV; listed as Homo sapiens) [compound 17] | “+++” (≥50 = +++)
23 | 231 (FLSPQQPPLLL; listed as Homo sapiens) [compound 231] | “++” (≥20% = ++)
24 | 399 (YLFEPLYHV; listed as Homo sapiens) [compound 399] | “+++” (≥50 = +++)
25 | 476 (ALMERTGYSMV; listed as Homo sapiens) [compound 476] | “+++” (≥50 = +++)
26 | 287 (FLNEFFLNV; listed as Homo sapiens) [compound 287] | “+++” (≥50 = +++)
27 | 271 (LVYPLELYPA; listed as Homo sapiens) [compound 271] | “+++” (≥50 = +++)
